B1: MAb 8D3 (IgG) (antibody, V domains shown)
VH: EVQLQQSGPELVKPGASVKISCKTSGYTFTEYTMYWVKQSHGKSLEWIGGINPNIGDTSYNQNFKGKATLTVDRSSSTAYMELRSLTSEDSAVYYCARDGYPYYYALDHWGQGTSVTVSS
VL: DIVMTQSQKFMSTSVGDRVSVTCKASQNVGTNVAWYQQKPGQSPKALIYSTSYRYSGVPDRFTGSGSGTDFTLTISNVQSEDLAEYFCQQYNSYPYTFGGGTKLEIK
notes: copies: 2 + 2
B2: MAb 3C1 (antibody, V domains shown)
VH: EVQLQESGPSLVKPSQTLSLTCSVTGDSITNGYWNWIRKFPGNKLEYMGYISYSGSTYYSPSLKSRISITRDTSKNQHYLQLNSVTSEDTATYYCASDYHGSKYYFDYWGQGTTLTVSS
VL: DIVMTQSHKFMSTSVGHRVSITCKASQDVGNDVAWYQQKPGQSPKLLIYWASTRHTGVPDRFTGSGSGTDFTLTISNVQSEDLADYFCQQYNRYPYTFGGGTKLEIK
notes: copies: 2 + 2
B3: MAb 2H2 (antibody, V domains shown)
VH: QVQLKQSGPSLVQPSQSLSITCTVSGFSLTSYGVHWVRQSPGKGLEWLGVMWRGGNTDYNAAFMSRLSITKDNSKSQVFFKMNSLQTDDTAIYYCAKNGGAHAMDFWGQGTSVTVSS
VL: NIVLTQSPASLAVSLGQRATISCRASESVDSYGNSFLHWYQQKPGQPPKLLIYLASNLESGVPARFSGSGSRTDFTLTIDPVEADDAATYYCQQNNEDPFTFGSGTKLEIK
notes: copies: 2 + 2

target: T1, recombinant RBD protein derived from the SARS-CoV-2 WT strain (SARS-CoV-2 wild type (Wuhan-Hu-1), UniProt P0DTC2); assay: ELISA; conditions: both partners purified
T1 construct: also called WT-RBD; WT RBD

Row | Binder | binding result
1 | B1 | binds
2 | B2 | binds
3 | B3 | binds

Reference: paper PMC8847413 (Nature Communications, 2022)
